# According to the DeepSol protein solubility set:
# Test: soluble on expression in E. coli; label from the status in PepcDB or PDB records
row,Sequence,soluble on expression in E. coli
1,MSLTSSDVRNKYNFNSDWLLYVGDVPEAKQPRFSDSEWKKVTLPHAFNEDEAFRLSIDELTDTIMWYRKHFRLPANSKNKKVFVEFEGVRQGADFYINGQNVGLHENGVMAVGFDLTPYIKYGQENVIAVRIDNDWNYKERATGTKYQWSNKNFNANYGGIPKNVWLHVTDRLYQTLPLYSNLKTTGVYIYAEDIRVKSRKAIIHAESEIRNEYNRDKQVSYQVELIDRDGTSIQTFEGTKAVVKPGETITLKAASEVDNLHFWSWGYGYLYTVKTSLWVDGRKVDEVATRTGFRKTRFGKGMIWLNDRVIQMKGFAQRTSNEWPGVGMSVPAWLSDYSNHLMVEGNANLVRWMHVTPWKQDIESCDRVGLIQAMQAGDAEKDCEGRQWEQRTELMRDAIIYNRNNPSILFYECGNESISREHMIEMKAIRDLYDPHGGRAIGSREMLDIREAEYGGEMLYINKSAHHPMWAMEYCRDEGLRKYWDDYSYPYHKDGDGSNSYKSTVTNKVQKKVDARVYNRNQDSFTIENIIRWFDYWRERPGTGDRVSSGGVKIIFSDTNTHYRGVENYRRSGVTDAMRIPKDPFFAHQVMWDGWVDTECPRIYIVGHWNYNDTVVKPVYVVSSADKVELFLNGKSLGYGEQDYHFLYTFKDIAFVPGRLEAVGYDENGKECCRTQLQTAGKPEQIQLSFIQSPEGWKADGADMVLLQVEVMDKDGNRCPLANDLIHFEVEGPAEWRGGIAQGENNYILSKDLPVECGINRALIRSLTTAGNVRITAKADGLKPAEISLTSSPVEVKNGLSNYIPGDELEGRLTRGETPQTPSYKVSKVDVGIVSAIAGANNESTVNSFDDNELSEWRNDGKAATAWITYKLERAARVDEVCMKLTGWRMRSYPLEIYAGKELIWSGDTDKSLGYVHLDVKPVLTNEITIRLKGTSKEGDAFGQIVEVAAPVANELDLFKAKDGDKTGHELRIVEIEFKENLLKEGHHHHHH,soluble
2,MSLTTELVDWTHEQKCRKAVASLEKNGFTAVYCGTGQEALEYIVAEAAEAESVGFGGSMSVDDLKVIERIREMGKELLIHGAPGLSLEERVTIMRRQLTCDLFLAGTNALTLSGWLVNIDATGNRVGSMFFGPRKVIVVAGRNKIVDGGVQEAIDRIKEWASPPNARRLNYKTPCGTTGFCSDCNSPDRICRITTVIDRKPRLTDLRVLVVNEEMGFLEHHHHHH,soluble
3,MSLTTIIFDNGGHNMKIGTIDSESPRLVPNSIVKAKHEKKRVFVAHEQEECSDKFSLFYVRPIERGYVVNWDTQQQIWEKTFGSMDVEASTSRIALTDNNYLIPALPDVSSEILFDYFGFTEVHKTSASTLVAKHSNKINNEKCAVVVDSGFSWTTVASFVNGMLIQDSVIRIDVGGKALTNKLKDWVSYRQLNVSEETYVINECKEDLCFVSQNFDESMKEARNRFQENTTMKRYIMPDFHSTFRGVVKDVKEPHDPQIPSIHLGVERFAIPEILFNPSDIDIDQCGVAEAVIESICQCPEALRPALAENIIVIGGSSCFPGFRERLEREVRSMLPAEYGLNVSNDVINPQTHSWHCGQELLTASKVPWINRKDWDERGDSLEFSNFFQTLVQSDELKGTRNFDDQREKSPKEDEDF,not soluble
4,MSLTVIIKSMETPEEIEGKSLVHWQTWRESYDDLLPAEFQDTMTLERCRFFSQKYPENTLIAMDGVKVVGFISYGNFRDETIQAGEIIALYVLKDYYGKGIAQKLMKAALTALNHFSEIFLWVLKDNKRAIAFYQKMGFTFDGQEKILELGKPIKEKRMVFYSKEGHHHHHH,soluble
5,MSLTYPVLKGAGYVLIHTPDMIVQNGSTCTVERATNPDSEFLKEVSNHIRSYEDVVNYMPNQVYIGNRRPEELRDLPMPWCEQKIEGTRNGKFGEIMPQDEFIALMQISDAFDLVKLSQEFIDEVKPKIENNYPEIAPFVGKLKGDDIEEGKELVATHIAEGLYHDGKFVGYVKRAHDVDVNLNAHTMFENLVVKASGVLSAIQMLRHSKIDPAEIDYVIECSEEACGDINQRGGGNFAKSIAEIAGLQNATGSDTRGFCAAPTHALIQAAALVKAGIHKNVMVVAGGASAKLGMNAKDHVKKGLPVLEDVVGGFAVLVSENDGVNPVIRTDLTGKHTVGTGSSPQAVMTALITSGLDRANLKITDVDVYSVEMQNPDITKPAGAGDVPEANYKMIGALAVKRGDLEKKELKDFVSNKGLPGWAPTQGHIPSGAPYIGFLIDDLTTGNRNRAMIVGKGSLFLGRMTNLFDGVSFIAERNTGVTEETSGISKDEIKKIIAESMKKLALDMLEEGHHHHHH,soluble
6,MSLTYYFSGTIDRVIFENTSNFFKIILLEIDDTDSDFDDFEIIVTGTIADVIEGENYTFWGELTQHPKYGQQLKVERYQRAKPSSAGLIKYFSSQHFKGIGKKTAEKIIHLYGDDPIDNILEDPDKLESISGLSKANRENLVSKLRLNYGAEQILAKLAEYGLNNKTAVQIFERYKEESLTVITENPYQLVEDIQGIGFKMADKLAEQVGINSDAPQRFRAALVHTLLETSIDKGDTYIEAKELLEKSLFILEEVRQVELDPSQIAQELTQLISEDKVQNIGTKIFDNTLFYAESGIHKHLTRILDRPLEKEISSQDIQTEIKHIQAEFNINYDKAQKNAIQKAIQSKVFLLTGGPGTGKTTVINGIIKAYANLHQIDLQKSDRPIILAAPTGRAARRMNELTGLPSATIHRHLGLNGDSEYQALDDFLDCDLIIIDEFSMVDTWLANQLFSAIASNTQVIIVGDSDQLPSVGPGQILADLLKINRLPQVSLTKIFRQSEDSTIVTLANQIRQGRLPTDFTAKKADRSYFEAQSTHIPQMIQKIVSSALKSGIDAQEIQILAPMYRGQAGITHLNKLMQDLLNPLNNQLEFQFNDLHFRKGDKVLHLINDAQINVFNGDIGYITDLIPAKYTESKQDEMILDFDGTEINYPRNEWLKITLAYAMSIHKSQGSEFKVVILPVTRQSGRLLQRNLIYTAITRSKSKLVMLGEIAAFDNAIKNEGTKRKTYLIERFKKDECSGHHNTEKNKQGVKESAAILKEDFILTERNILTIDPMIGLSQADIDLFFKKEGHHHHHH,soluble
7,MSLVDQIKSYVAMRKYSIKRDEHGIVRLQLNNKDLFQFGPLDQGWWPDGLYTAPTDEALRYDIEKTKDFGFNMIRKHIKVEPARWYTYCDQIGLIVWQDMPSGDKSPEWQNRKYFEGTELTRSAESEETYRKEWKEVIDCLYSYPCIGTWVPFNEAWGQFKTQEIAEWTKQYDPSRLVNPASGGNHYTCGDMLDLHHYPGPEMFLYDAQRATVLGEYGGIGLVLKDHLWEPNRNWGYIQFNTSAEATAEYLKYAGILKDMISRGFSAAVYTQTTDVEVEVNGLMTYDRKVIKLDESKLKKMNTEICNSLKEGHHHHHH,not soluble
8,MSLVEDVKGVGFKTADKIASSLGIEADSPNRFRAALMHEVNTHSQSTGDTYIEAKNLLEMTIDLLEEARNVEVNPSAVAEEINGLIVDGKVQQEGTKIFENSLYFAEDGIRKSLTALTNRSGKDFADEKLLTVLAEVERDLEITYDDLQKQAIIGAMNQQFFILTGGPGTGKTTIINGFIETYARLHQLDLDPDHYNDDVFPILLAAPTGRASRRMNELTGLPAATIHRHLGLGQDEAEDALGNELSGALLIVDEFSMVDTWLANKLFQAIPGSMKVLLVGDADQLPSVGPGQIFADLLKIPEIPSVKLDKIFRQGDDSTITDLAHHIKDGQLPSDFTAKKPDRSYFEVSANFVPQMVEQIASAWQKRGNNPFELQILAPMYKGMAGINAMNVLLQNLFNPLNDRLEFALGDMKFREGDKVLHLVNDAEANVFNGDLGQIVELIAAKYTDSKQDELVMDFDGQELTYPRAEWYKITLAYAMSIHKSQGSEFSTVIVPMVSSYSRMLERNLLYTAITRAKQSLILLGEERAFAQAVAREGANRKTYLIERFMGENEGHHHHHH,soluble
9,MSLVGGFPHHPVVHHEGYPFAAAAAAAAAAAASRCSHEENPYFHGWLIGHPEMSPPDYSMALSYSPEYASGAAGLDHSHYGGVPPGAGPPGLGGPRPVKRRGTANRKERRRTQSINSAFAELRECIPNVPADTKLSKIKTLRLATSYIAYLMDLLAKDDQNGEAEAFKAEIKKTDVKEEKRKKELNEILKSTVSSNDKKTKGRTGWPQHVWALELKQ,not soluble
10,MSLVGNMNREALFKTLTTGYLHFWSLSRKKLWLKGETSGNFQIIEEFKVDCDADAVLFKVTSLGPICHTGNYTCFYRSYDELVNSKSEGHHHHHH,not soluble
11,MSLVKAVLFDIDGTLLSEKPLIMFILPQVYDELANKLNISRMEARRIFLSEIEKRKGKYEWHDWNFFFRLFSLPFKYEDFIMKYPTKIEVFPGVVEVLKYLKERGYRLGIVTSGPRYQVLKLKVSGIYRYFDVVVTRDDVGSIKPEPRIFLAALEKLKISPKDAVMVGDSLEQDILGAKGVGMKSVWINVGGENGYNLPDFEISSILQLPEVIEDESDIEGHHHHHH,soluble
12,MSLVMVVDGSKLVRKLITDVLRRELPEVDVIGCVGIAEARQTLEAGTVDLVTTSLFLPDGDGLALARSVREEAGQAYVPVIVVSGDTQQHLVERRFTEYVTDYFDKALGHEALAAFIRGYVQPEPVSSGTVLYVEDSCVVAEATTRMLERQGLRVVHVLTAEDAFALLTAESLGRTEYRINLVLTDVTLKGELSGCDVVQRIRIDFSYGKRRLPVLVMTGDTNSQNQSELLRAGANDLVQKPIEERLLVTKVLFQLRLARLKDDLATIEGHHHHHH,not soluble
13,MSLVRNSSRLLRSQLKRVQSVPVALYHENVVEHYENPRNVGSLDKKDVTVGTGLVGAPACGDVMKLQIKVDENGKIVDAKFKTFGCGSAIASSSLATEWVKGKSIDEAGKLKNTDIAKELRLPPVKLHCSMLAEDAIKAALADYKVKQQKKVAN,not soluble
14,MSLVTNKLGRDIPQPYADQYGVFEGELANIKQYDESSRRIKPVKPGDSKLLGSVREAIEKTGLTDGMTISFHHHFREGDFIMNMVLEEIAKMGIKNLSIAPSSIANVHEPLIDHIKNGVVTNITSSGLRDKVGAAISEGLMENPVVIRSHGGRARAIASGDIHIDVAFLGAPSSDAYGNVNGTKGKATCGSLGYAMIDAKYADQVVILTDNLVPYPNTPISIPQTDVDYVVTVDAIGDPQGIAKGATRFTKNPKELLIAEYAAKVITNSPYFKEGFSFQTGTGGASLAVTRFMREAMIKENIKASFALGGITNAMVELLEEELVEKILDVQDFDHPSAVSLGKHAEHYEIDANMYASPLSKGAVINQLDTCILSALEVDTNFNVNVMTGSDGVIRGASGGHCDTAFAAKMSLVISPLIRGRIPTFVDEVNTVITPGTSVDVIVTEVGIAINPNRQDLVDHFKSLNVPQFSIEELKEKAYAIVGTPERIQYGDKVVALIEYRDGSLMDVVYNVEGHHHHHH,soluble
15,MSLYDVTEWKHVFKLDPNKDLPDEQLEILCESGTDAVIIGGSDGVTEDNVLRMMSKVRRFLVPCVLEVSAIEAIVPGFDLYFIPSVLNSKNADWIVGMHQKAMKEYGELMSMEEIVAEGYCIANPDCKAAALTEADADLNMDDIVAYARVSELLQLPIFYLEYSGVLGDIEAVKKTKAVLETSTLFYGGGIKDAETAKQYAEHADVIVVGNAVYEDFDRALKTVAAVKGEEGGSHHHHHH,soluble
16,MSLYIDGTFSYSLYRKICTDRSAVNKASNTQESSVAKPSIIKTSENPLQTIEVEVYDEYGEKLVKSIACERPLTVLLNWKEIVTLMTLGSRPEALVLGYLKNQSFISDPEALDSIIIDWETHSAAVVTRENIDHLEPALKKKTVTSGCGQGTMYGNVMKQLEHYQVPQQPIKQSQIYAALEALTHYNDTYKKAGAVHGCAICQEDRVLSFVEDVGRHNAVDTLAGEMWLNGMRGDDKIFYTTGRLTSEMVIKVAQMGIPVLLSRSGVTQMGLELAQRFGITTIARASGRRFHVYSGADKMVFDVKGHSEEAEGHHHHHH,soluble
17,MSLYLWNIQISSAFLEVISLYEVTLRNTLVKALEPNYRQYSILNDNFIRALRHETREALIVAVNKVSLNSHKYSAVRGAHGMIQPLKIDPRDVPVGKVVAELNFVFWENMLSKTHSSRWKAHYKEAFPNLVVEPNIGIECQIARIHQITGKVRELRNRICHHEPIFDENKINLSELYTQIKEVLNYISRLDKYTKEGHHHHHH,not soluble
